Measurements: PMC2840706

How the values were obtained:
[1] = target: HIV-1 CA A14C/E45C/W184A/M185A (HIV-1 (NL4-3)); assay: cross-linking
[2] = target: HIV-1 CA A14C/E45C/W184A/M185A (HIV-1 (NL4-3)); assay: SEC

HIV-1 CA A14C/E45C/W184A/M185A (natural protein)
stoichiometry N [1]: 6
stoichiometry N [2]: 6
